From US20190315847A1 (UNIVERSITY OF PITTSBURGH OF THE COMMONWEALTH SYSTEM OF …, published 2019)

Biological target: T1, insulin like growth factor 1 receptor (IGF1R) (human, UniProt P08069 31-736; P08069 741-1367)
T1 construct: Endogenous IGF1R in MCF-7 and T47D breast cancer cells; also called IGF1 receptor; IGFR1
Assay: in situ proximity ligation assay (Duolink), MCF-7 and T47D cells
Procedure: In situ proximity ligation assay (PLA) was used to analyze the direct interaction between IGF1R and E-cadherin in breast cancer cells. MCF-7 (FIG. 7A) and T47D (FIG. 7B) cells were plated on coverslips, fixed, and stained with IGF1R and E-cadherin antibody overnight. The Duolink (Sigma) protocol was followed and coverslips were imaged using confocal microscopy to reveal red puncta. MCF-7 cells transfected with anti-CDH1 siRNA (siCDH1; FIG. 7C) or anti-IGF1R siRNA (siIGF1R; FIG. 7D) were used as negative controls for the assay to assess primary antibody specificity. […] All puncta and nuclei in 60× images were counted. One-way ANOVA was used to determine significant difference between groups (p<0.05; one independent experiment, n=5 images per slide counted). Further, IGF1R (green; second column from left) and E-cadherin (red; third column from left) were analyzed for co-localization (merge; fourth column from left) by immunofluorescence staining in MCF-7 cells transfected with siSCR (FIG. 7J) or siCDH1 (FIG. 7K). […]
Cells were plated on coverslips and fixed in 4% paraformaldehyde for 30 minutes at 37° C. […] The ratio of puncta/nuclei for each experimental condition was calculated by counting all puncta and nuclei in five 60× images.

T1 sequence (P08069 31-736, chain 1 of 2): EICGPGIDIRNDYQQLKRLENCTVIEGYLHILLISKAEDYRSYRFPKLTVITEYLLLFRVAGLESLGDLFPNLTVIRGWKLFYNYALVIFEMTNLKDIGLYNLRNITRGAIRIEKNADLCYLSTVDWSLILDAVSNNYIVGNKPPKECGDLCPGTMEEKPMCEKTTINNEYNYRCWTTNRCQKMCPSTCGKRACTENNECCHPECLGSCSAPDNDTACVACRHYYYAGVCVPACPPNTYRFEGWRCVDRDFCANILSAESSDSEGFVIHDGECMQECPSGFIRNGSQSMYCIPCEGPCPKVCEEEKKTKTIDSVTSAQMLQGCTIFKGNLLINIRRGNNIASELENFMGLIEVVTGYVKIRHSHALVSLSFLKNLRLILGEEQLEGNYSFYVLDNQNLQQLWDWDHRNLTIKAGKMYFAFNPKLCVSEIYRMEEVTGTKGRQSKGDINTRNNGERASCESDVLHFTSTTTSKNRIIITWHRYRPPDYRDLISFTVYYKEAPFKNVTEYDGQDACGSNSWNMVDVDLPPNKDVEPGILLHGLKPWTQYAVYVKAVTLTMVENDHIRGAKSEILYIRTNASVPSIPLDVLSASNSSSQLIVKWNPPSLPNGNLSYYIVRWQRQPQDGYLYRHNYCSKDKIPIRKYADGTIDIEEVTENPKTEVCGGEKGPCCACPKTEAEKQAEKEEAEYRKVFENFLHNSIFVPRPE
T1 sequence (P08069 741-1367, chain 2 of 2): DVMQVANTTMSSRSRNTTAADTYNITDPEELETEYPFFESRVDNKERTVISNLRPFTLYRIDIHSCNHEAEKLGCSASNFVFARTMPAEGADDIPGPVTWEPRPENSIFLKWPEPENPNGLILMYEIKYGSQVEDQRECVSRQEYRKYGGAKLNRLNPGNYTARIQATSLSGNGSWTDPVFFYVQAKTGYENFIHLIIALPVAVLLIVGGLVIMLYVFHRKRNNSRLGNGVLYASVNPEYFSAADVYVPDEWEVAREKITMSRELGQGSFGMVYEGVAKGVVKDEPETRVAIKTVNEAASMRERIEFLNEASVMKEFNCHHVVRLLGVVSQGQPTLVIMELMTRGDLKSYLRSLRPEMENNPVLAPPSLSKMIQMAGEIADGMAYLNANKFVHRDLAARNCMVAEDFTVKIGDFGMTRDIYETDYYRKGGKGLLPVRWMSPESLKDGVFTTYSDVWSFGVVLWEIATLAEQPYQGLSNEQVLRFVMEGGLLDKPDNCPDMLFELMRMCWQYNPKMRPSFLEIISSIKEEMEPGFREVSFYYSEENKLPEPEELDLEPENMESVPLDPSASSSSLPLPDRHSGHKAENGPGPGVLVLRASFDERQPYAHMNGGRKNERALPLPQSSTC

binding result: binds
B1: E-cadherin (CDH1) (other)
chain: DWVIPPISCPENEKGPFPKNLVQIKSNKDKEGKVFYSITGQGADTPPVGVFIIERETGWLKVTEPLDRERIATYTLFSHAVSSNGNAVEDPMEILITVTDQNDNKPEFTQEVFKGSVMEGALPGTSVMEVTATDADDDVNTYNAAIAYTILSQDPELPDKNMFTINRNTGVISVVTTGLDRESFPTYTLVVQAADLQGEGLSTTATAVITVTDTNDNPPIFNPTTYKGQVPENEANVVITTLKVTDADAPNTPAWEAVYTILNDDGGQFVVTTNPVNNDGILKTAKGLDFEAKQQYILHVAVTNVVPFEVSLTTSTATVTVDVLDVNEAPIFVPPEKRVEVSEDFGVGQEITSYTAQEPDTFMEQKITYRIWRDTANWLEINPDTGAISTRAELDREDFEHVKNSTYTALIIATDNGSPVATGTGTLLLILSDVNDNAPIPEPRTIFFCERNPKPQVINIIDADLPPNTSPFTAELTHGASANWTIQYNDPTQESIILKPKMALEVGDYKINLKLMDNQNKDQVTTLEVSVCDCEGAAGVCRKAQPVEAGLQIPAILGILGGILALLILILLLLLFLRRRAVVKEPLLPPEDDTRDNVYYYDEEGGGEEDQDFDLSQLHRGLDARPEVTRNDVAPTLMSVPRYLPRPANPDEIGNFIDENLKAADTDPTAPPYDSLLVFDYEGSGSEAASLSSLNSSESDKDQDYDYLNEWGNRFKKLADMYGGGEDD
notes: Endogenous E-cadherin in MCF-7 and T47D breast cancer cells; also called epithelial cadherin; CD324
